From patent publication US20080025989A1 (Seagen, published 2008)

Assays:
human CD70 [1] = target: T1, human CD70 (human, UniProt P32970 1-193); assay: cell-based or functional assay
T1 sequence (looked up): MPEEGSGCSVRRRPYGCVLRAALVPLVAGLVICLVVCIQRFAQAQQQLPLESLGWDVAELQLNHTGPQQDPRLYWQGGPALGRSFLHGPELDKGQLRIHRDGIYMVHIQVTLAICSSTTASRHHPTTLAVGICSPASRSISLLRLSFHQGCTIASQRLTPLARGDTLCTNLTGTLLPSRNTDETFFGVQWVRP

human CD70 [2] = target: T1, human CD70; assay: flow cytometry on allo-activated T cells after 5 days of MLR
Text: In the second system, an MLR was set up between PBMC and an irradiated allogeneic stimulator CESS. Allogeneic activation of peripheral blood T cells was achieved by conventional mixed lymphoycte reactions (MLR). MLR were initiated by mixing PBMCs and irradiated allogeneic Epstein-Barr virus (EBV)-transformed B lymphoblastoid CESS cells (ATCC, Manassas, Va.) at a ratio of one T cell to ten irradiated CESS cells. T cell density was adjusted to 0.25×10⁶ T cells/ml of RPMI-1640 supplemented with 10% FBS and 2 mM L-glutamine. Rapid proliferation and expansion of alloreactive T cells was observed after approximately 96 hours of culture. After 5 days of stimulation, cells were assessed for CD70 expression using the anti-CD70 mAb 1F6 by flow cytometry. […] In parallel cultures in 96-well plates, graded doses of either 1F6-vcMMAE or 1F6-vcAFP were included in the cultures at initiation. DNA synthesis was assayed during the last 16 hours of the 5-day culture by a pulse of ³H-TdR.

human CD70 [3] = target: T1, human CD70; assay: cell-based or functional assay; remark: listed apart in the source
human CD70 [4] = target: T1, human CD70; assay: cell-based or functional assay; remark: listed apart in the source
human CD70 [5] = target: T1, human CD70; assay: cell-based or functional assay; remark: listed apart in the source
human CD70 [6] = target: T1, human CD70; assay: immunohistochemistry on frozen RCC tumor sections, 2 µg/ml
Method: Immunohistochemistry was used to determine if over-expression of CD70 transcript in RCC was paralleled by CD70 protein expression. Frozen RCC tissue sections and normal adjacent tissue sections from two patients independent of those used in CD70 transcript analysis (FIGS. 6 and 7) were fixed in acetone at −20° C. for 10 minutes. After rehydration in PBS, sections were blocked with PBS containing 5% normal goat serum and Avidin D for 30 minutes at room temperature, and washed in PBS. Sections were incubated with the anti-CD70 mAb 2F2 or non-binding IgG at 2 μg/ml in PBS containing 5% normal goat serum with biotin for 60 minutes at room temperature. After washes with PBS, biotinylated anti-mouse IgG (VECTASTAIN ABC Kit, Vector Laboratories, Burlingame, Calif.) at a 1:250 dilution in PBS containing 5% normal goat serum was used to detect bound primary antibody by incubating for 30 minutes at room temperature. Excess biotinylated anti-mouse IgG was removed by PBS washes. Sections were quenched with 1% H₂O₂ in PBS for 30 minutes at room temperature, washed, and then incubated with the VECTASTAIN ABC complex made up according to the manufacturer's instructions. After PBS washes, sections were incubated for 30 minutes at room temperature with the DAB solution (VECTASTAIN ABC Kit) made up according to the manufacturer's instructions for color development. […]

B1: 1F6-vcAFP (antibody, V domains shown)
VH: QIQLVQSGPEVKKPGETVKISCKASGYTFTNYGMNWVKQAPGKGLKWMGWINTYTGEPTYADAFKGRFAFSLETSASTAYLQINNLKNEDTATYFCARDYGDYGMDYWGQGTSVTVSS
VL: DIVLTQSPASLAVSLGQRATISCRASKSVSTSGYSFMHWYQQKPGQPPKLLIYLASNLESGVPARFSGSGSGTDFTLNIHPVEEEDAATYYCQHSREVPWTFGGGTKLEIKR
modifications: maleimidocaproyl-val-cit-AFP on cysteine thiols of the DTT-reduced antibody (positions not stated)
IC50, cytotoxicity (alamarBlue) on CD70+ RCC lines (human CD70 [1]): < 0.02 mg/L
IC50, proliferation of activated CD70-expressing T cell clones C2A, 40D8 and 4.01.1 (human CD70 [1]): < 0.05 mg/L

B2: 1F6-vcMMAF (antibody, V domains shown)
VH: B1 VH
VL: B1 VL
modifications: MC-Val-Cit-PAB-MMAF on cysteine thiols of the DTT-reduced antibody (positions not stated)
IC50, cytotoxicity (alamarBlue) on CD70+ RCC lines (human CD70 [1]): < 0.03 mg/L
IC50, proliferation inhibition of all CD70+ RCC lines tested (human CD70 [1]): < 0.03 mg/L

B3: anti-human CD70 monoclonal antibody 1F6 (antibody, mouse IgG1, V domains shown)
VH: B1 VH
VL: B1 VL
notes: Murine hybridoma mAb from the Netherlands Red Cross Blood Transfusion Service; they were cloned with mouse IgG1 and kappa gene-specific primers; Used AlexaFluor488-conjugated for flow cytometry where necessary; also called mAb 1F6; AF-conjugated 1F6
binding result (human CD70 [2]): binds

B4: 1F6-vcMMAE (antibody, V domains shown)
VH: B1 VH
VL: B1 VL
modifications: maleimidocaproyl-val-cit-PAB-MMAE on cysteine thiols of the DTT-reduced antibody (positions not stated)
IC50, proliferation of Caki-1 cells (human CD70 [1]): < 0.02 mg/L
IC50, proliferation of Caki-2 cells (human CD70 [1]): < 0.02 mg/L

B5: chimeric 1F6(c1F6)-vcMMAF4 (antibody, V domains shown)
VH: B1 VH
VL: B1 VL
modifications: val-cit-MMAF drug-linker, average of four per antibody (positions not stated)
IC50 (ng/mL), cytotoxicity on AMO-1 cells (human CD70 [3]): 16 ng/mL
IC50 (ng/mL), cytotoxicity on JJN-3 cells (human CD70 [3]): 46 ng/mL
IC50 (ng/mL), cytotoxicity on L363 cells (human CD70 [3]): 78 ng/mL
IC50 (ng/mL), cytotoxicity on LB cells (human CD70 [3]): 80 ng/mL
IC50 (ng/mL), cytotoxicity on LP-1 cells (human CD70 [3]): 160 ng/mL
IC50 (ng/mL), cytotoxicity on MM.1R cells (human CD70 [3]): 13 ng/mL
IC50 (ng/mL), cytotoxicity on MM.1S cells (human CD70 [3]): 20 ng/mL
IC50 (ng/mL), cytotoxicity on MOLP-8 cells (human CD70 [3]): 73 ng/mL
IC50 (ng/mL), cytotoxicity on U266 cells (human CD70 [3]): 1.2 ng/mL
IC50 (ng/mL), cytotoxicity on Hs445 cells (human CD70 [4]): 7.3 ng/mL
IC50 (ng/mL), cytotoxicity on KMH2 cells (human CD70 [4]): 0.41 ng/mL
IC50 (ng/mL), cytotoxicity on L428 cells (human CD70 [4]): 1.4 ng/mL
IC50 (ng/mL), cytotoxicity on RPMI-6666 cells (human CD70 [4]): 42 ng/mL
IC50 (ng/mL), cytotoxicity on SUP-HD-1 cells (human CD70 [4]): 6.3 ng/mL
IC50 (ng/mL), cytotoxicity on DBTRG-05MG cells (human CD70 [5]): 2.3 ng/mL
IC50 (ng/mL), cytotoxicity on GMS-10 cells (human CD70 [5]): 27 ng/mL
IC50 (ng/mL), cytotoxicity on SNB-19 cells (human CD70 [5]): 12 ng/mL
IC50 (ng/mL), cytotoxicity on U251 cells (human CD70 [5]): 5.3 ng/mL
IC50 (ng/mL), cytotoxicity on U373MG cells (human CD70 [5]): 16 ng/mL

B6: chimeric 1F6 (c1F6)-mcMMAF4 (antibody, V domains shown)
VH: B1 VH
VL: B1 VL
modifications: maleimidocaproyl-MMAF drug-linker, average of four per antibody (positions not stated)
IC50 (ng/mL), cytotoxicity on AMO-1 cells (human CD70 [3]): 38 ng/mL
IC50 (ng/mL), cytotoxicity on JJN-3 cells (human CD70 [3]): 61 ng/mL
IC50 (ng/mL), cytotoxicity on L363 cells (human CD70 [3]): 210 ng/mL
IC50 (ng/mL), cytotoxicity on LB cells (human CD70 [3]): 500 ng/mL
IC50 (ng/mL), cytotoxicity on LP-1 cells (human CD70 [3]): 155 ng/mL
IC50 (ng/mL), cytotoxicity on MM.1R cells (human CD70 [3]): 20 ng/mL
IC50 (ng/mL), cytotoxicity on MM.1S cells (human CD70 [3]): 22 ng/mL
IC50 (ng/mL), cytotoxicity on MOLP-8 cells (human CD70 [3]): 33 ng/mL
IC50 (ng/mL), cytotoxicity on U266 cells (human CD70 [3]): 1.7 ng/mL
IC50 (ng/mL), cytotoxicity on Hs445 cells (human CD70 [4]): 310 ng/mL
IC50 (ng/mL), cytotoxicity on KMH2 cells (human CD70 [4]): 5.2 ng/mL
IC50 (ng/mL), cytotoxicity on L428 cells (human CD70 [4]): 35 ng/mL
IC50 (ng/mL), cytotoxicity on RPMI-6666 cells (human CD70 [4]): 230 ng/mL
IC50 (ng/mL), cytotoxicity on SUP-HD-1 cells (human CD70 [4]): 53 ng/mL
IC50 (ng/mL), cytotoxicity on DBTRG-05MG cells (human CD70 [5]): 20 ng/mL
IC50 (ng/mL), cytotoxicity on GMS-10 cells (human CD70 [5]): 110 ng/mL
IC50 (ng/mL), cytotoxicity on SNB-19 cells (human CD70 [5]): 27 ng/mL
IC50 (ng/mL), cytotoxicity on U251 cells (human CD70 [5]): 15 ng/mL
IC50 (ng/mL), cytotoxicity on U373MG cells (human CD70 [5]): 35 ng/mL

B7: anti-human CD70 monoclonal antibody 2F2 (antibody, mouse IgG1, V domains shown)
VH: QVQLQQSGTELMTPGASVTMSCKTSGYTFSTYWIEWVKQRPGHGLEWIGEILGPSGYTDYNEKFKAKATFTADTSSNTAYMQLSSLASEDSAVYYCARWDRLYAMDYWGGGTSVTVSS
VL: DIVLTQSPASLTVSLGQKTTISCRASKSVSTSGYSFMHWYQLKPGQSPKLLIYLASDLPSGVPARFSGSGSGTDFTLKIHPVEEEDAATYYCQHSREIPYTFGGGTKLEITR
notes: Murine hybridoma mAb; they were cloned with mouse IgG1 and kappa gene-specific primers; also called mAb 2F2
binding result (human CD70 [6]): binds
